Assay [1] deals with T1, human IgE; monoclonal antibody SE44 (human, UniProt P01854-1 1-428).
T1 construct: domain: human e constant region; also called IgE (SE44); human monoclonal IgE (SE44)
In words: BIAcore SPR, antibody captured via anti-human IgG, IgE SE44 25 nM, dissociation in HBS, 25°C. (In general: Surface plasmon resonance follows binding to a sensor surface in real time, without labels.)

For assay [2], the target named is T1, human IgE; monoclonal antibody SE44. The assay is described as follows: BIAcore SPR, Kaff from kass and kdiss.
Assay [3] shares this target. The assay is described as follows: BIAcore SPR, antibody captured via anti-human IgG, IgE SE44 3.125-25 nM in flow, 25°C.

For orientation: koff means the first-order rate constant of dissociation. The kon is the rate constant with which the complex forms.

B1: reshaped human C21 antibody C21-H3/L1 (antibody, V domains shown)
VH: QVQLVQSGAEVKKPGASVKVSCKASGYTFSMYWLEWVRQAPGHGLEWVGEISPGTFTTNYNEKFKARATFTADTSTNTAYMELSSLRSEDTAVYYCARFSHFSGSNYDYFDYWGQGTLVTVSS
VL: DILLTQSPGTLSLSPGERATLSCRASQSIGTNIHWYQQKPGQAPRLLIKYASESISGIPSRFSGSGSGTDFTLTISRLEPEDFAMYYCQQSDSWPTTFGQGTKVEIK
The molecule B1 showed a koff in assay [1] of 1.9e-05 s⁻¹. In assay [2], the Ka was found to be 1.32e+10 M⁻¹. Moreover, in assay [3], the kon came out at 250000 M⁻¹ s⁻¹.

B2: reshaped human C21 antibody C21-Hay3/L2 (antibody, V domains shown)
VH: QVQLVQSGAEVKKPGASVKVSCKASGYTFSMYWLEWVRQAPGQRLEWMGEISPGTFTTNYNEKFKARATFTADTSASTAYMELSSLRSEDTAVYYCARFSHFSGSNYDYFDYWGQGTLVTVSS
VL: DILLTQSPGTLSLSPGERATLSCRASQSIGTNIHWYQQKPGQAPRLLIKYASESISGIPDRFSGSGSGTDFTLTISRLEPEDFAMYYCQQSDSWPTTFGQGTKVEIK
Consider B2, for which, in assay [1], the off-rate (koff) came out at 3.1e-05 s⁻¹. In addition, the Ka in assay [2] is 8.1e+09 M⁻¹. The molecule further returned an association rate constant (kon) in assay [3] of 250000 M⁻¹ s⁻¹.

B3: reshaped human C21 antibody C21-H1/L2 (antibody, V domains shown)
VH: QVQLVQSGAEVKKPGASVKVSCKASGYTFSMYWLEWVKQRPGHGLEWVGEISPGTFTTNYNEKFKAKATFTADTSTNTAYMELSSLTSEDTAVYYCARFSHFSGSNYDYFDYWGQGTLVTVSS
VL: DILLTQSPGTLSLSPGERATLSCRASQSIGTNIHWYQQKPGQAPRLLIKYASESISGIPDRFSGSGSGTDFTLTISRLEPEDFAMYYCQQSDSWPTTFGQGTKVEIK
notes: C21-L2 is C21-L1 with aspartic acid instead of serine at position 60
Regarding B3, the koff in assay [1] was found to be 5.7e-05 s⁻¹. Also, in assay [2], the Ka came to 4.9e+09 M⁻¹. Moreover, the kon in assay [3] stood at 280000 M⁻¹ s⁻¹.

B4: reshaped human C21 antibody C21-H3/L2 (antibody, V domains shown)
VH: QVQLVQSGAEVKKPGASVKVSCKASGYTFSMYWLEWVRQAPGHGLEWVGEISPGTFTTNYNEKFKARATFTADTSTNTAYMELSSLRSEDTAVYYCARFSHFSGSNYDYFDYWGQGTLVTVSS
VL: DILLTQSPGTLSLSPGERATLSCRASQSIGTNIHWYQQKPGQAPRLLIKYASESISGIPDRFSGSGSGTDFTLTISRLEPEDFAMYYCQQSDSWPTTFGQGTKVEIK
On to B4, for which, in assay [1], the koff was determined as 4.4e-05 s⁻¹. In assay [2], this molecule returned a Ka of 5.7e+09 M⁻¹. The kon in assay [3] worked out at 250000 M⁻¹ s⁻¹.

B5: reshaped human C21 antibody C21-H3/L3 (antibody, V domains shown)
VH: QVQLVQSGAEVKKPGASVKVSCKASGYTFSMYWLEWVRQAPGHGLEWVGEISPGTFTTNYNEKFKARATFTADTSTNTAYMELSSLRSEDTAVYYCARFSHFSGSNYDYFDYWGQGTLVTVSS
VL: EIVLTQSPGTLSLSPGERATLSCRASQSIGTNIHWYQQKPGQAPRLLIKYASESISGIPSRFSGSGSGTDFTLTISRLEPEDFAMYYCQQSDSWPTTFGQGTKVEIK
In turn, B5 returned a koff in assay [1] of 3.5e-05 s⁻¹. Further, in assay [2], the Ka stood at 7.4e+09 M⁻¹. In assay [3], this molecule came in with a kon of 260000 M⁻¹ s⁻¹.

B6: reshaped human C21 antibody C21-Hay3/L3 (antibody, V domains shown)
VH: QVQLVQSGAEVKKPGASVKVSCKASGYTFSMYWLEWVRQAPGQRLEWMGEISPGTFTTNYNEKFKARATFTADTSASTAYMELSSLRSEDTAVYYCARFSHFSGSNYDYFDYWGQGTLVTVSS
VL: EIVLTQSPGTLSLSPGERATLSCRASQSIGTNIHWYQQKPGQAPRLLIKYASESISGIPSRFSGSGSGTDFTLTISRLEPEDFAMYYCQQSDSWPTTFGQGTKVEIK
In turn, B6 registered a koff in assay [1] of 0.000159 s⁻¹. The molecule further registered a Ka in assay [2] of 1.6e+09 M⁻¹. This molecule also had a kon in assay [3] of 260000 M⁻¹ s⁻¹.

B7: reshaped human C21 antibody C21-H1/L1 (antibody, V domains shown)
VH: QVQLVQSGAEVKKPGASVKVSCKASGYTFSMYWLEWVKQRPGHGLEWVGEISPGTFTTNYNEKFKAKATFTADTSTNTAYMELSSLTSEDTAVYYCARFSHFSGSNYDYFDYWGQGTLVTVSS
VL: DILLTQSPGTLSLSPGERATLSCRASQSIGTNIHWYQQKPGQAPRLLIKYASESISGIPSRFSGSGSGTDFTLTISRLEPEDFAMYYCQQSDSWPTTFGQGTKVEIK
Turning to B7, the koff in assay [1] stood at 3e-05 s⁻¹. The Ka in assay [2] worked out at 8.7e+09 M⁻¹. The molecule also displayed a kon in assay [3] of 260000 M⁻¹ s⁻¹.

B8: reshaped human C21 antibody C21-Hay3/L1 (antibody, V domains shown)
VH: QVQLVQSGAEVKKPGASVKVSCKASGYTFSMYWLEWVRQAPGQRLEWMGEISPGTFTTNYNEKFKARATFTADTSASTAYMELSSLRSEDTAVYYCARFSHFSGSNYDYFDYWGQGTLVTVSS
VL: DILLTQSPGTLSLSPGERATLSCRASQSIGTNIHWYQQKPGQAPRLLIKYASESISGIPSRFSGSGSGTDFTLTISRLEPEDFAMYYCQQSDSWPTTFGQGTKVEIK
The molecule B8 yielded a koff in assay [1] of 4.1e-05 s⁻¹. Further, the Ka in assay [2] stood at 6.1e+09 M⁻¹. In assay [3], this molecule yielded a kon of 250000 M⁻¹ s⁻¹.

B9: reshaped human C21 antibody C21-H1/L3 (antibody, V domains shown)
VH: QVQLVQSGAEVKKPGASVKVSCKASGYTFSMYWLEWVKQRPGHGLEWVGEISPGTFTTNYNEKFKAKATFTADTSTNTAYMELSSLTSEDTAVYYCARFSHFSGSNYDYFDYWGQGTLVTVSS
VL: EIVLTQSPGTLSLSPGERATLSCRASQSIGTNIHWYQQKPGQAPRLLIKYASESISGIPSRFSGSGSGTDFTLTISRLEPEDFAMYYCQQSDSWPTTFGQGTKVEIK
notes: C21-L3 is C21-L1 with Glu instead of Asp at position 1 and Val instead of Leu at position 3
For B9, the koff in assay [1] stood at 6.2e-05 s⁻¹. In assay [2], this molecule displayed a Ka of 4.7e+09 M⁻¹. In assay [3], the kon was found to be 290000 M⁻¹ s⁻¹.

(Values after patent publication EP1452542A2 (Novartis AG, dated 2004).)
